Measured values published in patent publication US7790673 (NEW YORK UNIVERSITY, dated 2010).

Columns and labels:
[1] = biological target: T1, full-length βAPP (βAPP751 cDNA, in HEK293 cells) (UniProt P05067-8 18-751, limits assumed); assay: immunoprecipitation of HEK293 cell lysate proteins with anti-cystatin C antibody, immunoblot with 22C11
T1 construct: whole, on cells; Tested by co-immunoprecipitation from cell lysates, not on intact cells; also called β amyloid precursor protein; cell associated full-length βAPP
Description: Media was replaced 16 hours after transient transfection, harvested 24 hours later, and spun at 4,500×g for 10 minutes at 4° C. Cells were harvested in RIPA buffer (1% NP-40, 0.5% cholic acid, 0.1% SDS; 150 mM NaCl, 10 mM Tris-HCl, pH 8.0) with protease inhibitors (7.5 μg/ml Aprotinin; 5 μg/ml leupeptin; 2 mM PMSF) and centrifuged for 5 minutes at 10,000 rpm at 4° C. Cellular and secreted proteins were immunoprecipitated with either polyclonal antibodies and Protein A Sepharose (Pharmacia Biotech) for 4 hours at 4° C. or with monoclonal antibodies overnight at 4° C. and with GammaBind Plus Sepharose beads (Pharmacia Biotech) for 2 hours at 4° C.
The interaction of cystatin C with βAPP was examined in HEK293 cells stably expressing either wild type or variant cystatin C genes, and transiently transfected with either wild type βAPP or vector cDNAs. […] The data indicates binding between cystatin C and cell associated full-length as well as sβAPP.

Aβ1-42 synthetic peptide = biological target: T2, Aβ1-42 synthetic peptide (UniProt P05067 672-713); assay: ELISA, Aβ1-42-coated wells, 0-37.5 nM cystatin C
T2 construct: domain: Aβ1-42; Coated on microtiter wells, freshly dissolved; Also used in the fibril and oligomerization assays; also called Aβ42
Description: (§1) Two different batches of each peptide were used in the experiments. Wild type and variant cystatin C, purified from conditioned media as described above, were compared to urinary cystatin C (Calbiochem Biosciences). Polystyrene microtiter plates (Immunolon 2; Dynex Technology) were coated for 16 hours at 4° C. with freshly dissolved Aβ peptides (400 ng in 100 µl of NaHCO_3 $pH$ 9.6 per well). After blocking with 200 µl Superblock (Pierce), increasing concentrations of either wild type, variant or urinary cystatin C (0-37.5 nM) in 100 µl TBS-T (20 mM Tris-HCl, 150 mM NaCl pH 7.4, containing 0.1% Tween-20) were added to the Aβ-coated wells and incubated for 3 hours at 37° C. Bound cystatin C was detected with 100 µl polyclonal anti-cystatin C antibody (1:600) followed by 100 µl horseradish peroxidase-conjugated F(ab')2 anti-rabbit IgG (1:4000, Amersham) and developed using 100 µl 3,3',5,5'-tetramethyl-benzidine as substrate; Absorbency was read at 450 nm after stopping the reaction with 100 µl 2.5N sulfuric acid. Non-linear regression analysis, estimation of dissociation constants and comparison of protein binding data were assessed for statistical significance with GraphPad Prism software (GraphPad, San Diego, Calif., USA). P values were calculated by one-way ANOVA of three independent repeated measures of duplicate samples. […]

Aβ1-40 synthetic peptide = biological target: T3, Aβ1-40 synthetic peptide (UniProt P05067 672-711); assay: ELISA, Aβ1-40-coated wells, 0-37.5 nM cystatin C
T3 construct: domain: Aβ1-40; Coated on microtiter wells, freshly dissolved; also called Aβ40
Description: as §1

Measured: binding result

B1: variant human cystatin C (L68Q, HCHWA-I variant) (other, UniProt P01034 27-146, looked up)
chain: SSPGKPPRLVGGPMDASVEEEGVRRALDFAVGEYNKASNDMYHSRALQVVRARKQIVAGVNYFLDVEQGRTTCTKTQPNLDNCPFHDQPHLKRKAFCSFQIYAVPWQGTMTLSKSTCQDA
notes: mature; Position 68 counts on the mature protein, not on the precursor with signal peptide; also called cystatin C-V; CysC-V
binds: all assays above
